A protein production outcome set (Wang et al. 2014)

Assay: label from the status in PepcDB records
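Also: failed if final PepcDB status was selected cloned or expressed and not failed if soluble or beyond.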

Sequence | protein production
MSFQEIPIIDLQEAFDPATRSKFLEEVRDAIINVGFLLLKNYESLGPTEEDLQSIKQQAIEFFALPAKEKLQCEMLNSPHFLGYTRLANEITASHTDWREQIDLATELPAPKEGEPLYKNIEGPNLWPNPEVIPKFRPTIERFIEKMTALSNVFKDLVAESIGVDPKALNRYFKENQQCKMKLIAYPDVSELDGTKSAALDDTPETNQGVEPHRDSDLITYIYQATEHQNSLQVQNFQGHWITVPNIPGHLVVNNGQTLQAITGGVAKATIHRVLVPEKGTGTRISIPFFQTIDLDSSKGVVDNLPQEVIDLKNERDKKIKDWGVDTGFQFEPDVSKEPIGHAVFRNRIKSHQDVAKKWYPDVLKSVLQEYTH | not failed
MGHHHHHHSHMSFVECPYHSPAERLVAEADEGGPSAITGMGLCFRCLLFSFSGRSGVEGGRVDLNVFGSLGLQPWIGSSRCWGGPCSSALRCGWFSSWPPPSKSAIPIGGGSRGAGRVSRWPPPHWLEAWRVSPRPL | failed
MSLSAQADARPTPAPSFSGVTVDGKPFSSASLKGKAYIVNFFATWCPPCRSEIPDMVQVQKTWASRGFTFVGIAVNEQLPNVKNYMKTQGIIYPVMMATPELIRAFNGYIDGGITGIPTSFVIDASGNVSGVIVGPRSKADFDRIVKMALGAKAATKEGHHHHHH | not failed
MLETSSHFLKSFRLKRYIGFLLISLALLITPFVRIDGAHLFLISFEHKQLHFLGKIFSAEELQVMPFMVILLFIGIFFITTSLGRVWCGWACPQTFLRVLYRDVIETKIFKLHKKISNKQESPKNTPSYKIRKVLSVLLFAPVVAGLMMLFFFYFIAPEDFFMYLKNPSDHPIAMGFWLFSTAVVLFDIVVVAERFCIYLCPYARVQSVLYDNDTLNPIYDEKRGGALYNNQGHLFPLPPKKRSPENECVNCLHCVQVCPTHIDIRKGLQLECINCLECVDACTITMAKFNRPSLIQWSSTNAINTRQKVHLVRLKTIAYMGVIAIVIALLAITSFKKERMLLDINRNSDLYELRSSGYVDNDYVFLFHNTDNKDHEFYFKVLGQKDIQIKKPLNPIAIKAGQKIKAVVILRKPLKSNATEYKNAKDALIPITIQAYSADDKNITIERESVFIAPSED | failed
MFDIGVNLTSSQFAKDRDDVVACAFDAGVNGLLITGTNLRESQQAQKLARQYSSCWSTAGVHPHDSSQWQAATEEAIIELAAQPEVVAIGECGLDFNRNFSTPEEQERAFVAQLRIAADLNMPVFMHCRDAHERFMTLLEPWLDKLPGAVLHCFTGTREEMQACVAHGIYIGITGWVCDERRGLELRELLPLIPAEKLLIETDAPYLLPRDLTPKPSSRRNEPAHLPHILQRIAHWRGEDAAWLAATTDANVKTLFGIAF | not failed
GNSKSRNDRTETVDKEVIKAPEFDADSAYQYIQVQADFGPRVPNTQAHKECGEYLAGQLEKFGAKVYNQYADLIAYDGTILKSRNIIGAYKPESKKRILLCAHWDSRPYADNDPDPKNHHTPILGVNDGASGVGVLLEIARQIQKEQPALGIDIVFFDSEDYGIPEFYDGKYKQDTWCLGSQYWARTPHVQNYNARYGILLDMVGGKDATFYYEGYSARTARSEMKKIWKKAHELGYGKYFVKEDGGETVDDHIYVNKLARIPCVDIINYDAGNPQSSFGSFWHTVNDTMENIDRNTLKAVGQTVMDVIYNEK | not failed
MAYDGLFTKKMVESLQFLTTGRVHKINQPDNDTILMVVRQNRQNHQLLLSIHPNFSRLQLTTKKYDNPFNPPMFARVFRKHLEGGIIESIKQIGNDRRIEIDIKSKDEIGDTIYRTVILEIMGKHSNLILVDENRKIIEGFKHLTPNTNHYRTVMPGFNYEAPPTQHKINPYDITGAEVLKYIDFNAGNIAKQLLNQFEGFSPLITNEIVSRRQFMTSSTLPEAFDEVMAETKLPPTPIFHKNHETGKEDFYFIKLNQFNDDTVTYDSLNDLLDRFYDARGERERVKQ | not failed
MNGSEFVPLSLTPLLIGVLAAVACALPGNFLVLRRQALIGDAISHVVLPGIVVAFLLTGAIAAWPMMLGAAGAAVVAVVLIEAIRRLGRIEPGAAMGVVFTTMFAAGVLLLEQTDTSTVHLDVEHALYGNLESLIWLDATGWASLLDPVALAGLPVELSRILVTLVGVVGFIWLFWRPLKLSTFDEGFARTLGIRTNLLGLALVIVAAVAAVAAFDAVGSIIVIAMFICPPAAARMMTNTLEGQVGWSVVFAILSAVLGYVLAGYGPLWLGARDAVSAAGMIATMSGLILALTARFGPCRSRTGAPVQA | failed
MAELFIPDEPIIEVTAVLSAILILVLVLPFKVRIVEENLEAFFFIMGLLGVATIYYYGILPTPDSLIGLFIKAFKTPLAIAHVGPIPIGIVQAVVFFGLVFYFFHKHIYSILASTMEKVGIPVFAFILTFLLGLISSVISVIVTAVILAEIAAALNISRERKVKYVVYASFAVGIGAALTPLGEPLSTIAISKLNAHFTYLIDILGVYIVPGIAVSAVAAAYSLRGEVYREGLVKFVYEESINEILLRGFRVFLFVAALELLGASFTPMVKWYFAQLPSWALYWINTISAVVDNATLTAAEMGPFLTEEQIRSALMSLLISGGMLIPGNIPNIVAAGRLRITMNEWARVGVPFGIALLLAYFIVIEVLDIHITLSF | failed
MPVAEQPYHHGSLRRVLLARAESTLEKDGVDGLSLRQLAREAGVSHAAPSKHFRDRQALLDALAESGFLRLTAALERAVEEAESHARARFAALAGAYVSFALAHRELLALMYGNKHAPGAASQVVEAGHASMDLTVRIVTEAQAAGDIGPGDASRIALVAFATFHGIATLAAGGMLDGAPVDEVVTAASDTFWRGLAQA | not failed
MIVEVLIRVFFLICTAALGWGAGYILKLSSKEISSLLVYVISPFVIFVSILQSPADWTYFAYSLGALLTASVAAFLAYGLARMIWSDGRVNLFSFAAGTGNTGYFALPLAFALFNAQQIAIAVFIIIGINIYEFTVGYFIAAKGTFKTTDSLQKIVRLPILYAIILGMTFKKWGIDVGATLLSAMSNFKGAYSVLGMMVIGVTLASYQKIKIDWGFLIATLTWKHLIYPAVGVLIFYFITPVSIDTLAVIVMMLATPMAANTVVVANTLNLYPEKAAFSVMVSTFLAVVTVPLAIVWVTRLSR | failed
MSFKGEITHLVPNELYAFKVVEGPFHYTGTYRFKPHPEGTWIEWVFEAEPGSFFGVLPPALLKKMVLAQFKKDVDNLQALAQKGEAYESVGNENKPTLETNKPPHKTQQMMERYARWILSHRRIVLEHHHHHH | failed
GPVPTPPDNIQVQENFNISRIYGKWYNLAIGSTCPWLKKIMDRMTVSTLVLGEGATEAEISMTSTRWRKGVCEETSGAYEKTDTD | failed
MPHRCAAQVVAGYRSTVSLVLVEHPRPEIAQITLNRPERMNSMAFDVMVPLKEALAQVSYDNSVRVVVLTGAGRGFSPGADHKSAGVVPHVENLTRPTYALRSMELLDDVILMLRRLHQPVIAAVNGPAIGGGLCLALAADIRVASSSAYFRAAGINNGLTASELGLSYLLPRAIGSSRAFEIMLTGRDVSAEEAERIGLVSRQVPDEQLLDACYAIAARMAGFSRPGIELTKRTLWSGLDAASLEAHMQAEGLGQLFVRLLTANFEEAVAARAEQRAPVFTDDT | failed
MMMEEKLVINELELGKELANRLMNNLKHTSSVDSNKTLISDILRIYQNAIFMLSFNQDKNILKRSLEIDGKDSKNVFKKRKVSEKNTEKVKVFVATEQENGSIDDGHCWRKYGQKEIHGSKNPRAYYRCTHRFTQDCLAVKQVQKSDTDPSLFEVKYLGNHTCNNITSPKTTTNFSVSLTNTNIFEGNRVHVTEQSEDMKPTKSEEVMISLEDLENKKNIFRTFSFSNHEIENGVWKSNLFLGNFVEDLSPATSGSAITSEVLSAPAAVENSETADSYFSSLDNIIDFGQDWLWS | failed
MPLVTRNIEPRHLCRQTLPSVRSELECVTNITLANVIRQLGSLSKYAEDIFGELFTQANTFASRVSSLAERVDRLQVKVTQLDPKEEEVSLQGINTRKAFRSSTIQDQKLFDRNSLPVPVLETYNTCDTPPPLNNLTPYRDDGKEALKFYTDPSYFFDLWKEKMLQDTKDIMKEKRKHRKEKKDNPNRGNVNPRKIKTRKEEWEKMKMGQEFVESKEKLGTSGYPPTLVYQNGSIGCVENVDASSYPPPPQSDSASSPSPSFSEDNLPPPPAEFSYPVDNQRGSGLAGPKRSSVVSPSHPPPAPPLGSPPGPKPGFAPPPAPPPPPPPMIGIPPPPPPVGFGSPGTPPPPSPPSFPPHPDFAAPPPPPPPPAADYPTLPPPPLSQPTGGAPPPPPPPPPPGPPPPPFTGADGQPAIPPPLSDTTKPKSSLPAVSDARSDLLSAIRQGFQLRRVEEQREQEKRDVVGNDVATILSRRIAVEYSDSEDDSSEFDEDDWSD | not failed
